Values quoted from earlier work, collected in publication PMC10361579.
“And” between values parts separate entries of the source, which are not always exact repeats. Equal entries are not always repeated.

Tests used:
[1] = target: classical cadherin (X-dimer) (UniProt P12830)
[2] = target: classical cadherin (strand-swap dimer) (UniProt P12830)

## classical cadherin (X-dimer) (from UniProt P12830)
[1]
  Kd: 916 µM

## classical cadherin (strand-swap dimer) (from UniProt P12830)
[2]
  Kd: 64 µM and 97 µM
